According to patent US8735085B2, “Method for diagnosing diseases using a protein or degradation product based on half-life” (Becton, Dickinson and Company, priority 2007, dated 2014):
Read-outs that look alike come from different tables or passages of the source. No end group written: not given here.

Assays:
[1] = Sequential multi-step reaction (SMSR) kinetic modeling of FPA and its fragments in pooled heparin plasma; format: in vitro ADME, human; conditions: for apparent rate constants of the sequential reactions (k1-k5, truncation of the peptide) / half-lives: heparin plasma pooled from three healthy individuals; for apparent rate constants of the sequential reactions (k1-k5, truncation of the peptide): first-order SMSR simulation; for half-lives: four replicates, first-order SMSR; for T1/2 (h) in Heparin: SMSR model; for incubation time at which the truncated daughter peptide was detected: AQUA FPA spiked in heparinized plasma
Experimental: Determining half-lives of the degradation products of the peptide, however, entails further modeling and calculations. For examples, sequential multi-step reaction (SMSR) model may be used. Particularly, the half-life of each daughter peptide (e.g., FPA-1, FPA-2, FPA-3, etc.) is determined using information related to one or more of its parent peptides as well as the measured behavior of the daughter peptides creation and further degradation. Accordingly, as represented below, the peptide FPA, referred to as “a” and having a kinetic rate constant k1, is used to determine the half-life of […], referred to as “b” and having a kinetic rate constant k2, which is used to determine the half-life of FPA-2, referred to as “c” and having a kinetic rate constant of k3, and so on.
Accordingly, kj is the kinetic rate constant of step reaction j. Ii is the measured signal (i.e., the peak intensity in MALDI-TOF MS) of peptide i. For example, measured intensities of each of the degradation products of the peptide over a 4 hour time span may be seen in FIG. 3. The peak intensity of, for example, FPA-4, occurs at 2 hours, where is measures 1216.670 m/z. A0 is the initial peak intensity of the parent peptide at time 0. Since Ii=K′iCi+I0, and I0=0 after baseline subtraction, then Ii=K′iCi or Ci=KiIi (1), where
Such calculations are performed for different points in time (i.e., different values of t), so as to plot the varying intensities of each degradation product against the reaction time, as shown in FIG. 4b. The rate constant of each step reaction, kj, can be computed by simulation of the equations (2b)-(6b). Then, the half-lives for each degradation product may be calculated by the equation t1/2=Ln(2)/kj.
For determining kinetic rate constants in a complex sequential reaction observed in this study, analytical solutions were derived from, a first order sequential multi-step reaction (SMSR), as explained above in the discussion concerning equations (1)-(6), (2a)-(6a), and (2b)-(6b). MATLAB (Version 7.0, Mathworks) was employed to numerically simulate this model with the experimental data, and reaction rate constants were then determined in the sequential pattern following the chain reaction sequences. The modeling process was optimized to achieve a best fit to R^2 (goodness-of-fit) calculation.
The observed decrease of the spiked AQUA FPA peptide is caused by the intrinsic amino-peptidase activity (9, 15, 20, 33) as its six fragments, sequentially truncated from the amino terminus, can be detected during the incubation (FIG. 3, FIG. 8). The process was easily observed in heparinized plasma, since the relative instability in this sample facilitated detection of the various truncated peptides within a reasonable experimental time frame (FIG. 3). […] During further incubation, smaller daughter peptides were detected: FPA-3 at 30 min, FPA-4 at one hour, and both FPA-5 and FPA-6 at two hours (FIG. 3, FIG. 8). None of these peptides was detected after eight-hour incubation.
The measurement of the degradation products was sufficiently unambiguous as to allow definition of a kinetic model of the degradation process. To determine the rate constants of the sequential reaction, the fragments of FPA: FPA-1, FPA-2, FPA-3, FPA-4 (FIG. 3), were measured in heparin plasma pooled from three healthy individuals with four replicates, and the average of peak intensities were modeled according to a first-order SMSR (FIG. 4). Simulation of the peak intensities of time-course MS (FIG. 4B) gave apparent rate constants of the sequential reactions: k1=2.1, k2=0.29, k3=1.96, k4=1.6, and k5=0.04 h^−1 for the first five step truncations (FIG. 4A), with goodness-of-fit (R^2) of 0.84, 0.78, 0.77, 0.87, and 0.76, respectively. Accordingly, the half-lives of FPA, FPA-1, FPA-2, FPA-3, and FPA-4 are 0.29, 2.1, 0.31, 0.38, and 15.2 hours, respectively (FIG. 4A). […]

[2] = Time-course stability of spiked isotope-labeled (AQUA) peptides in serum and plasma samples, MALDI-TOF MS, first-order fit; format: in vitro ADME, human; conditions: for T1/2 (h) Citrate / T1/2 (h) EDTA / T1/2 (h) Heparin: plasma
Excerpt: Methods of determining the half-lives of parent peptides may be determined by a process, which includes by example first spiking the peptide into one or more collection vehicles such as blood collection tubes comprising samples of biological fluid. In some embodiments, the collection vehicle is a swab. As described in an example disclosed herein, commercially available blood collection tubes sampled for determining half-lives included P100, EDTA, citrate, or heparin blood collection containers. The peak intensities of the peptide in each sample are measured at various points in time. […] Accordingly, a line may be constructed for each sample. The slope of the line (−kobs), representing the kinetic rate of the first-order degradation, may be used to compute a half-life value. That is, a kinetic rate constant can be determined by fitting the data with: Ln(I)=−kobs t+C, where I is the peak intensity, or the peak area, t is the incubation time period in the study, C is a constant, and kobs is the observed (or apparent) rate constant. The half-life of the peptide is determined by t1/2=Ln(2)/kobs.
A direct test for stability of a peptide biomarker in a collected blood sample was carried out by monitoring its change during a time-course incubation. It was discovered that the spiked peptides themselves are subject to preanalytical degradation, and thus the spiked peptides became our focus for studying the relative instability of peptides in various blood samples. The stability of AQUA FPA was tested by adding it into either a serum or plasma sample (either BD P100, EDTA, citrate, or heparin plasma) collected from a single venipuncture, or a pooled serum or plasma sample from three healthy individuals. After the spiked sample was incubated for specified periods of time, the peptides were measured by MALDI-TOF MS.
Human blood from healthy individuals was directly drawn into evacuated tubes to obtain serum and plasma samples, as described previously (20). Briefly, serum tubes (BD product #366430) were placed at room temperature (r.t., approx. 24° C.) to clot for 60 min after the collection of the blood, and then centrifuged at 2,500×g for 15 min. at room temperature. Plasma tubes, including citrate tube (BD product #369714), heparin tube (BD product #367886), EDTA tube (BD product #367525), and BD P100 tube (BD product #366456), were spun immediately (within 10 min. after blood was drawn), for 15 min at 2,500×g, and at room temperature to minimize the handling condition and to prevent possible platelet activation. Both plasma and serum samples were pipetted out of the blood-collection tubes into Eppendorf tubes and were frozen within 15 minutes at −80° C. until use. With these optimized handling processes, full acquisition and processing time was minimized to approximately 30 minutes for plasma and 90 minutes for serum.
Isotopically labeled peptides were purchased from Sigma-Genosys (The Woodlands, Tex.). All peptides were synthesized with one stable isotopic amino acid residue, either L-Arginine-13C6 15N4, or L-Phenylalanine-13C9 15N1, with mass of 10 higher than its natural counterpart. The quality of each peptide was verified by HPLC, MALDI-TOF MS (FIG. 6), and amino acid analysis by the vendor with purity higher than 98%. […] The peptides were diluted with relevant solvents to make stocks of 400 fmol/μL for spiking experiments.
The frozen serum and plasma were thawed (once only) in a room temperature water bath for approximately 5 minutes, in order to minimize the dwell time by temperature exposure of the samples. Soluble AQUA peptide (50 μL in water) was spiked into a thawed serum or plasma sample (450 μL), resulting in a final concentration of 40 fmol/μL. The samples were incubated at room temperature. A 45-μL aliquot was withdrawn at each specified time, and quenched by adding 5 μL of 2% TFA solution. […]

| Substance | apparent rate constants of the sequential reactions (k1-k5, truncation of the peptide) [1] | half-lives [1] | T1/2 (h) in Heparin ([1]; heparin plasma) | peptidase-induced degradation of isotopic labeled peptide [2] | incubation time at which the truncated daughter peptide was detected [1] | other results |
| --- | --- | --- | --- | --- | --- | --- |
| ADSGEGDFLAEGGGVR (listed as Homo sapiens) [FPA] | 2.1 h⁻¹ | 0.29 h | 0.29 h | – | – | detectable up until a period of time after collection [2]: 12 to 48 h; detection of peak after incubation [2]: still easily detected at 48 hours; time until undetectable after collection [2]: undetectable in less than two hours; T1/2 (h) Citrate ([2]; human): <0.1 h; T1/2 (h) EDTA ([2]; human): 3.51 ± 0.05 h; T1/2 (h) Heparin ([2]; human): 0.55 ± 0.02 h; T1/2 (h) Serum ([2]; human, serum): 0.30 ± 0.01 h; half-life in serum (too short to be measured) ([2]; human, serum): less than 15 min. |
| BNP: brain natriuretic peptide | – | – | – | instability has been observed | – | – |
| DFLAEGGGVR (listed as Homo sapiens) [FPA-6] | – | – | – | – | at two hours | – |
| DSGEGDFLAEGGGVR (listed as Homo sapiens) [FPA-1] | 0.29 h⁻¹ | 2.1 h | 2.1 h | – | Time 0 | enhanced half-life compared to the parental FPA ([1]; heparin plasma): 7 fold |
| EGDFLAEGGGVR (listed as Homo sapiens) [FPA-4] | 0.04 h⁻¹ | 15.2 h | 15.2 h | – | at one hour | enhanced half-life compared to the parental FPA ([1]; heparin plasma): 52 fold; time at which the peak intensity occurs ([1]; heparin plasma, 4 hour time span, FIG. 3): 2 h |
| GDFLAEGGGVR (listed as Homo sapiens) [FPA-5] | – | – | – | – | at two hours | – |
| GEGDFLAEGGGVR (listed as Homo sapiens) [FPA-3] | 1.6 h⁻¹ | 0.38 h | 0.38 h | – | at 30 min | – |
| GLP-1: glucagon-like peptide-1 | – | – | – | instability has been observed | – | – |
| NGFKSHALQLNNRQIR-OH [C4, NGFKSHALQLNNRQIR] | – | – | – | instability has been observed | – | – |
| RPPGFSPFR [bradykinin] | – | – | – | – | – | peptidase-induced degradation of isotopic labeled peptide ([2]; blood samples, BNP, GLP-1, bradykinin data not shown): instability has been observed |
| SGEGDFLAEGGGVR (listed as Homo sapiens) [FPA-2] | 1.96 h⁻¹ | 0.31 h | 0.31 h | – | Time 0 | – |
| SSKITHRIHWESASLLR (listed as Homo sapiens) [C3f] | – | – | – | instability has been observed | – | T1/2 (h) Citrate ([2]; human): 0.039 ± 0.01 h; T1/2 (h) EDTA ([2]; human): 0.082 ± 0.01 h; T1/2 (h) Heparin ([2]; human): 0.075 ± 0.01 h; T1/2 (h) Serum ([2]; human, serum): 0.079 ± 0.01 h |
